Holding throughout (assay): ITC
(Isothermal titration calorimetry measures the heat released or taken up as one component is titrated into another.)

In assay [1] the target is T1, AnkG R1-24 H384A (Rattus norvegicus).
T1 chain: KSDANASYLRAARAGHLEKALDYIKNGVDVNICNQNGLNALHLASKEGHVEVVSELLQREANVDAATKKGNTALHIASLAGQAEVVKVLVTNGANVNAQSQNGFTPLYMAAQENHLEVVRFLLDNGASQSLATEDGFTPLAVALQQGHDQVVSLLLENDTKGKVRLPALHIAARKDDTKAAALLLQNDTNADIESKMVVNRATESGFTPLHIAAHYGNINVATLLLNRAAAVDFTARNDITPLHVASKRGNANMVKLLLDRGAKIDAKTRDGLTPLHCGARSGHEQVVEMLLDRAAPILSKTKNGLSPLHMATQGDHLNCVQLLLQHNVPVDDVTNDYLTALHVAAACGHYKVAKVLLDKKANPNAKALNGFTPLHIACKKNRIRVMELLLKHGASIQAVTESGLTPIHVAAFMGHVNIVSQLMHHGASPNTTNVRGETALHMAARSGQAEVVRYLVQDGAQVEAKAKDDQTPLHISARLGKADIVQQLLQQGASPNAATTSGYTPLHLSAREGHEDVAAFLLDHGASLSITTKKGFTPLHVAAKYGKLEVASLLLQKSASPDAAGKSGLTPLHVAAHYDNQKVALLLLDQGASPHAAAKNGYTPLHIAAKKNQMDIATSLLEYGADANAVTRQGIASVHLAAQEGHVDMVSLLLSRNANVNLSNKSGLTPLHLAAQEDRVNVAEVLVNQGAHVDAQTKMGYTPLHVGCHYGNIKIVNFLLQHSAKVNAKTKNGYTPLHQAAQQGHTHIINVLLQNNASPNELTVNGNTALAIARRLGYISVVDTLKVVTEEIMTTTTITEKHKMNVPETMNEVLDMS

Assay [2] deals with T2, AnkG R1-24 M348Q (Rattus norvegicus).
T2 chain: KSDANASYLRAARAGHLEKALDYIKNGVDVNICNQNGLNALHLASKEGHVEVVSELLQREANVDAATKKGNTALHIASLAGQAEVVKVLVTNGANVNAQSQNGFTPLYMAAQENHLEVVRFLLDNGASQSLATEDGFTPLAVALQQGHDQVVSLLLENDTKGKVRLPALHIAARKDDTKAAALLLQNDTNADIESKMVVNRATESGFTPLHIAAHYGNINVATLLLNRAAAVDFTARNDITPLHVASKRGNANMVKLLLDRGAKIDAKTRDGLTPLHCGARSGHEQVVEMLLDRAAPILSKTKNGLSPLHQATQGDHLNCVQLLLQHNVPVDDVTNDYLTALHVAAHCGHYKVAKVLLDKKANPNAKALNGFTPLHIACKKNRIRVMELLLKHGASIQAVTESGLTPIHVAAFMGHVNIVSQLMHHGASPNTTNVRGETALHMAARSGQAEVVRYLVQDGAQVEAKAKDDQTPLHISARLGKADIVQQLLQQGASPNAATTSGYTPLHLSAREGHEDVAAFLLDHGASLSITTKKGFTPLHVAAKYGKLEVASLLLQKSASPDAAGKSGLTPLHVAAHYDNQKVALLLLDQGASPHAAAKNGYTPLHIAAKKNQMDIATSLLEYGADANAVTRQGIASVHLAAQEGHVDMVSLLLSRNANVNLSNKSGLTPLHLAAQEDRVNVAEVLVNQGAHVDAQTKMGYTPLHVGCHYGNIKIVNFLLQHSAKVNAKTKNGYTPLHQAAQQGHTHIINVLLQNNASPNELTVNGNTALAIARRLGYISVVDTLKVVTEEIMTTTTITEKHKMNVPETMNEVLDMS

Assay [3] concerns the target T3, AnkG R1-24 T339A, N341A (Rattus norvegicus).
T3 chain: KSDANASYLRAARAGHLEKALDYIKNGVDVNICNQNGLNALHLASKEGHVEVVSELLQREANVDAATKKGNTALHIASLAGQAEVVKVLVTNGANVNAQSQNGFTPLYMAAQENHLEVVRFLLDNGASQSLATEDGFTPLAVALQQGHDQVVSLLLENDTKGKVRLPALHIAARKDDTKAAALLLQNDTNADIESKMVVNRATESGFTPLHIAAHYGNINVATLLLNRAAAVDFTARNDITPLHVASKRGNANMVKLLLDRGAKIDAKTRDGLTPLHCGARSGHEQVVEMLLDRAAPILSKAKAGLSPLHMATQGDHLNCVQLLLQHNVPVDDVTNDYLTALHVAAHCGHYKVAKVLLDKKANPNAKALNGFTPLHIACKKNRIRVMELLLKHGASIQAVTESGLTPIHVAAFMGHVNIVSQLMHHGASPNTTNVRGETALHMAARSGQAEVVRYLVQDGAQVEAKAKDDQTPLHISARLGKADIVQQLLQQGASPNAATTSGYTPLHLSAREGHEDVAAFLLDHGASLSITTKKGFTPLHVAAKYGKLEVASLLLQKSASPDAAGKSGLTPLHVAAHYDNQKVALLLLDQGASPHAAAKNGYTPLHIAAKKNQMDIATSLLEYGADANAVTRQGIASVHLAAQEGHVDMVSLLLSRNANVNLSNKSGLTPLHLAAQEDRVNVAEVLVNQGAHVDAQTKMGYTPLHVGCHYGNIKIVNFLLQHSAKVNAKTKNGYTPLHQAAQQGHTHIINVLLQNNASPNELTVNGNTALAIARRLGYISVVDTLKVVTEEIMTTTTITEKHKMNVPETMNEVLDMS

B1: Nfasc ankyrin-binding domain (ABD, residues 1187-1214) (domain or fragment, UniProt P97685 1187-1214, looked up)
chain: SDDSLVDYGEGGEGQFNEDGSFIGQYTV
notes: also called Nfasc ABD; source: E. coli BL21 (DE3), purified (Ni-NTA, size-exclusion chromatography)
By Kd is commonly meant the equilibrium constant for the complex coming apart. As for B1, the values for the Kd in assay [1], in assay [2] and in assay [3] were 1700 nM, 1800 nM and 2500 nM, respectively.

The values are drawn from paper PMC9396398, “Crystal structure of Ankyrin-G in complex with a fragment of Neurofascin reveals binding mechanisms required for integrity of the axon initial segment” (The Journal of Biological Chemistry, 2022).
